Laboratory results published in patent publication US20240327502A1 (Merck Sharp & Dohme, published 2024).

Key:
[1] = biological target: T1, Processed stabilized hMPV PreF trimer (115BV) (human metapneumovirus, strain B2); assay: BLI, ratio to unprocessed PreF trimer
T1 construct: also called Processed hMPV PreF trimer; processed PreF

hMPV PostF trimer = biological target: T2, hMPV PostF trimer (human metapneumovirus, strain B2); assay: BLI, mAb on anti-human Fc sensor
T2 construct: also called MPV PostF (dPFv1)

[2] = biological target: T1, Processed stabilized hMPV PreF trimer …; assay: BLI, mAb on anti-human Fc sensor
[3] = biological target: T3, Unprocessed hMPV PreF trimer (human metapneumovirus, strain B2); assay: BLI, mAb on anti-human Fc sensor
T3 construct: also called Unprocessed hMPV WT PreF trimer; unprocessed hMPV PreF trimeric antigen

Row | Binder | processed/unprocessed PreF trimer binding ratio [1] | Octet binding response (hMPV PostF trimer) | Octet binding response [2] | Octet binding response [3]
1 | M1A11 (antibody, V domains shown, IgG; also called MIA11) VH: QLQLQESGPGLVKPSETLSLTCTVSGDSISSSSFYWGWIRQPPGKGLEWIATIYYTGSTEYNPSLKSRISISVDTSMNQFSLRLRSVTAADTAVYYCARQEGSSWSNWFDPWGQGTLVTVSS VL: DIQMTQSPSSLSASVGDRVTITCRASQSISTYLNWYQQKPGKAPKLLIYVASSLQSGVPSRFSGSGSGTDFTLTISSLQPEDFATYYCQQGYSIPWTFGHGTKVEIK | 0.15 | 0.0143 nm | 0.0515 nm | 0.342 nm
2 | M2A03 (antibody, V domains shown, IgG) VH: QLQLQESGPGLVKPSETLSLTCSVSGGSISSSSNSWTWIRQPPGKGLEWIATIFYFGSTYYNPSLRSRVAISVDTSENQFSLKLTSVTAADTAVYFCARHILSSSGVSGWLDPWGQGTLVTVSS VL: SYELTQPPSVSVSPGQTASITCSGEKLGSKYAHWYQQKPGRSPVLVIYQDTKRPSGIPERFSGSNSGSTATLTISGTQAMDEADYYCQAWDSSSFVFGTGTTVTVL | 0.29 | 0.477 nm | 0.109 nm | 0.369 nm
3 | M4B05 (antibody, V domains shown, IgG) VH: QVQLVQSGPEVRKPGASVIISCKASGYSFISYYIHWVRQAPGQGLEWMGIINPSGGSTEYAQKYQGRLTITRDTSTTTVSMTLSSLRSDDTAVYFCAREQAVGAYDIWGQGTMVTVSS VL: EIVLTQSPGTLSLSPGERATLSCRAGQLINGNYLAWYQKKPGQAPSLLIYDVSRRAAGVPDRFTGSGSGTDFTLTISRLEPDDFAVYYCQHYGRSPSPTFGGGTKVEIK | 0.19 | -0.0395 nm | 0.0529 nm | 0.281 nm
4 | M4F8 (antibody, V domains shown, IgG) VH: QVQLVQSGPEVKKPGASVKISCKASEYTFTNHYLHWVRQAPGQGLEWLGIINPTGGSTYYAGDFQGRVTLTRDASTTTVYMELSSVKSEDTAIYYCARDRGMRYFDYWGQGTLVTVSS VL: QSVLTQPPSVSGAPGQRVSISCTGISSNIGATYDVHWYQQLPGTAPKLLIYGNNNRPSGVPDRFSGSKSGTSASLAITGLQAEDEAVYYCQSYDSVLSGSVIFGGGTILTVL | 0.22 | 0.0408 nm | 0.0584 nm | 0.271 nm
5 | M2F01 (antibody, V domains shown, IgG) VH: QVQLVQSGAEVKKPGASVKVSCKASEDTFTNYYMHWVRQAPGQGLEWMGIINPSGGSTDYAQKFQGRVTMTRDTSTSTVYMELSSLRSEDTAMYYCARQGRTAACDYWGQGTLVTVSS VL: DIQMTQSPSSVSASVGDRVTITCRASQGIRSWLAWYQQKPGKAPKLLIYAASTLQSGVPSRFSGSGSGTDFTLTISSLQPEDFATYYCQQSNSFSLFTFGPGTRVDIK | 0.22 | -0.0326 nm | 0.0736 nm | 0.335 nm
6 | M3A07 (antibody, V domains shown, IgG) VH: QVQLVQSGAEVQKPGASVKVSCKASGYTFTRHAIHWVRQAPGQRLEWIGWVHGGNENTKYSQKLQGRVTITRDTSASTAYMELNSLRYEDTAVYYCATAMPGAFNMWGQGTVVTVSS VL: DIQMTQSPSTLSASVGDRVTITCRASQSISSWVAWYQQKPGKAPKLLIYKAFSLETGVPSRFSGSGSGTEFTLTISSLQPDDCATYYCQQYGSFSEFTFGQGTKLEIK | 0.17 | -0.022 nm | 0.0536 nm | 0.324 nm
7 | M2B09 (antibody, V domains shown, IgG) VH: QVQLVQSGPEVKGPGASVRVSCKANGYTFTSYGINWVRQTPGQGLQWMGWISVHTDDTKDVQQFQDRVTMTTDTSTSTVFMELRNLRFDDTAVYYCARDRTDISGRVRDAFDLWGQGTLVTVSS VL: SYVLTQPPSVSVAPGQTAKITCGGNNIGSKSVHWYRQKPGQAPVLVVYDDSDRPSGIPERFSGSNSGNTATLTISRVEAGDEADYYCHVWDSYSDPNYVFGSGTKVTVL | 0.03 | -0.0435 nm | 0.0092 nm | 0.302 nm
8 | M2E11L (antibody, V domains shown) VH: QVQLVQSGAIMKKPGSSVKVSCKASGGTFTNFAFSWVRQAPGQGLEWMGGIIPFVGPANYAPQFQGRVTITADESTTTAYMELNSLRSEDTAVYYCARVRGFGETAYFYHYYMDVWGKGTTVTVSS VL: QTVVTQEPSLSVSPGGTVTLTCGLSSGSVSTSHFPSWYQQIPGQPPRTLIYSTITRSSGVPDRFSGSILGNKATLTITGAQADDECDYYCVLYLGGGIPHWVFGGGTKLTVL | 0.49 | 0.0538 nm | 0.162 nm | 0.332 nm
9 | M2A02 (antibody, V domains shown, IgG) VH: QVQLVQSGAEVKRPGSSVKVSCKASGDIFSSHAISWVRQTPGQGLKWMGRIIPLVGIRNYAQDLQGRVTISADKSINTVYMELTNLRFDDTAVYYCARDRTDWSGGLDIWGQGTRVTVSS VL: EIVLTQSPATLSLSPGERATLSCRASQRIGSYLAWYQQKPGQAPRLLIYDASNRATGIPARFSGSGSGTDFTLTISRLEPEDSAIYYCQQRTDWFTFGGGTKVEIK | 0.3 | -0.0402 nm | 0.0795 nm | 0.261 nm
10 | M4C04 (antibody, V domains shown, IgG) VH: RVTLRESGPALLKPTQTLTLTCTFSGFSLNTYGMSVNWIRQPPGKALEWLSRIDWDGDKYFNTSLKTRLTISKDTSKNQVVLTMTNMEPVDTATYYCAQSVIVPAQSFVSWFDPWGPGTLVTVSS VL: EIVMTQSPATLSVSPGERATLSCRASQSVRSNLAWYQQKPGQAPRLLIYGASSRATGIPARFSGSGSGTEFTLTISSLQSEDLAIYYCQQYNNWPPGAFGQGTKVEIK | 0.89 | 0.442 nm | 0.303 nm | 0.342 nm
11 | M2C10 (antibody, V domains shown, IgG) VH: QVQLVESGGGVVQPGRSLRLSCAASGFTFNNYAMHWVRQAPGKGLEWVALISDDGSKKYFADALKGRFTIFRDNSKNTLYLQMNSLRAEDTAVYYCARDPTPLGEYYFDYWGQGTLVTVSS VL: DIQMTQSPSSLSASVGDRVTITCRASQTISGYLNWYQQKPGKAPNLLIYTASSLESGVPSRFSGSGSETDFTLTISSLQPEDFATYYCQQSYRMPLTFGGGTRVSLK | 0.25 | -0.0261 nm | 0.0939 nm | 0.382 nm
12 | M2E04 (antibody, V domains shown, IgG) VH: QVQLQESGPGLVKPSEILSLTCTVSRFSINSGYYWGWIRQPPGKGLEWIGCISHAGSIYSNPSLESRVTLSLDTSKNQFSLKLTSVIAADTATYYCAASSNWHNALEYWGQGTLVVVSS VL: QSVLTQPPSASGTPGQTVTISCSGSRSNMGINWVYWYQQLPGTAPKLVIYRNSQRPSGVPDRFSGSQSGTSASLAISGLRSEDEAVYYCAVWDDSLDGRLFGGGTKLTVL | 0.51 | 0.0702 nm | 0.199 nm | 0.391 nm
13 | M2E05 (antibody, V domains shown, IgG) VH: QVQLQESGPGLVKPSEILSLTCTVSRYSINSGYYWGWIRQPPGKGLEWVGCVSHAGVTYYNPSLESRVAVSLDTSKNQFSLKMTSVSAADTAMYYCAASSNWHNALEYWGQGTLVAVSS VL: QSVLTQPPSASGTPGQSVTISCSGSSSNMGINWVYWYQQLPGTAPKLLIYRNSQRPSGVPDRFSGSQSGTSASLAISGLRSEDEGHYYCAVWDDVVSGRLFGGGTKLTVL | 0.54 | 0.0401 nm | 0.228 nm | 0.426 nm
14 | M2A05 (antibody, V domains shown, IgG) VH: QITLKESGPTLVKPTQTLTLTCTVSGFSLSANSVGVAWFRQPPGKAPEWLGVIYWDDDKRFSPSLKTRLSITKDASTSQVVLRLTNVSPLDTATYYCVRKHYDLLQWGQGAPVTVSS VL: EIVLTQSPGTLSLSPGEGATLSCRASRSVNSDYIAWYQHKPGLAPRLLIYAASTRATDIPDRFRADVSGTDFTLTIDRLEPDDFAVYYCQQYGSAVWTFGQGTRVEVK | 1.18 | 0.449 nm | 0.447 nm | 0.378 nm
15 | M2B10 (antibody, V domains shown, IgG) VH: QVQLVESGGGVVQPGRSLRLSCAASGFTFSNYPMHWVRQAPGKGLAWVALISYDGRTKYYADSVKGRFTISRDNSMNTVYLQMNSLRAEDTAVYYCAREGLEYLNYWGQGTLVTVSS VL: EIVLTQSPGTLSLSPGERATLSCRASQSISSNSLAWYQQKPGQAPRLLSYGTSNRATGIPDRFSGSGSGTDFTLTISRLEPEDFAVYYCQQYGSSPLTFGPGTKVDIK | 0.13 | -0.0646 nm | 0.0278 nm | 0.209 nm
16 | M4B11 (antibody, V domains shown, IgG) VH: QVQLVQSGTEVQTPGASVKVSCKTSGYIFTGYFMHWVRQAPGQGFEWMGWVNPYSGATTYAQKFQGRVTMTRDTSISTVYMELSRLTSDDTAIYYCAKDTSNSGPDLLEHWGQGTLVIVSS VL: EIVLTQSPATLSLSPGERATLSCRASQSISNFLVWYQRKPGQAPRLLIFDVSKRATGIPTRFSGSGSGTDFTLTISSLEPEDFAVYYCQQRSNWPPGYTFGQGTKLEIK | 0.18 | 0.426 nm | 0.0489 nm | 0.273 nm
17 | M2A06 (antibody, V domains shown, IgG) VH: QVQLVQSGAEVKKPGASVKISCKASGYSFSNYYIQWVRQAPGQGLEWLGIINPSGGSTDYAQKFEGRVSMTRDTSTNTVYMEMSSLRSEDTASYYCVRSLANGSGSPWGQGTLVIVSS VL: DIQMTQSPSTLSASVGDRVTITCRASQSISSRLAWYQQKPGKAPNLLLYDASRSESGVPSRFSGSGSGTEFTLTISSLQPDDVATYYCQHYSIYSRWTFGQGTKVEIK | 0.22 | -0.0352 nm | 0.052 nm | 0.237 nm
